Laboratory results taken from patent publication US20220396628A1.
Changes are numbered by the printed parent chain.

B1: KIP-10 Clone 160-1 (antibody, V domains shown)
VH: QSLEESGGDLVKPGASLTLTCTASGFSFSSNYFVCWVRQAPGKGLEWVGCINPGSGRTYSASWAKGRFTISKSSSTTVTLQMTSLTAADTATYFCARDRPGSDDYYMRDLWGPGTLVTVSS
VL: DPVMTQTPASVSEPVGGTVTINCQASESIGSSLAWYQQKPGQPPKLLIYAASTLASGVSSRFKGSGSGTQFTLTISDLECADAATYYCQCSYYLNTYVGNPFGGGTEVVVK
B2: KIP-10 Clone 147-1 (antibody, V domains shown)
VH: QEQLEESGGDLVKPEGSLTLTCTASGFSFSGDYYMCWVRQAPGKGLEWIACIYVGSYIYSFYASWAKGRFTISRTSSTTVTLQMTSLTAADTATYFCARDPFATDSDVVSLWGPGTLVTVSS
VL: AVVLTQTPASVSAAVGGTVTINCQASQSISTVLAWYQQKPGQRPKLLIYWASTLASGVPSRFKGSGSGTQFTLTISGVECDDAATYYCAGYKSYSNDDGAFGGGTEVVVK
B3: KIP-10 Clone 103-2 (antibody, V domains shown)
VH: QSVEESGGRLVTPGTPLTLTCTVSGFSLGSYYMSWVRQAPGKGLEWIGIIYQSGNTDYASWAKGRFTISKTSSTTVDLKMTSLTTEDTATYFCAREGYAGYVGYSYNIWGPGTLVTVSS
VL: AYDMTQTPASVSAAVGGTVSINCQASEDIESYLAWYQQRPGQPPKLLIYSASTLASGVSSRFKGSGSGTQFTLTISDLECADAATYYCQQGASSNDVEEPFGGGTEVVVK
B4: KIP-10 Clone 15-2 (antibody, V domains shown)
VH: QEQLVESGGGLVKPGASLTLTCKASGFSFSVGYDMCWVRQAPGKGLEWIACIDTDSSSRTWNASWAKGRFTISKPSSTTVTLQMTSLTAADTATYFCARNDDTSGWGSKLWGPGTLVTVSS
VL: DVVMTQTPASVSEPVGGTVTIKCQASQTIGSALAWYQQKPGQPPKLLIYTASNLASGVSSRFKGSRSGTEFTLTISDLECADAATYYCQHTFYGTSYVDAFGGGTEVVVK
B5: KIP-10 Clone 148-4 (antibody, V domains shown)
VH: QEQLEESGGDLVKPEGSLTLTCTASGFSFSGSFDVCWVRQAPGKGLEWIACIVVDSSDRTWYASWAKGRFTISKPSSTTVTLQMTSLTAADTATYFCARNDDTSGWGFNLWGPGTLVTVSS
VL: B4 VL with V3T, T28S, Y49W, E70D, H90C, F92Y, T95S, V98I, D99N
B6: KIP-10 Clone 63-2 (antibody, V domains shown)
VH: QQQLEESGGGLVKPGGTLTLTCKASGFSFSSDYDMCWVRQAPGKGLEWIACIYAGSSDNTYYATWAKGRFTISKTSSTTVTLQMTSLTAADTATYFCARDTADINFYFKLWGPGTLVTVSS
VL: DIVMTQTPASVSAAVGGTVTIKCQASESVSRWLAWYQQKPGQPPNLLIYSASTLASGVPSRFRGSGSGTEYTLTISDLECADAATYYCQGGYYSGGETYHNSFGGGTEVVVK
B7: KIP-10 Clone 180-2 (antibody, V domains shown)
VH: QSLEESGGGLVQPGGSLKLSCKASGFIFSDNYYMCWVRQAPGKGLELIACIYGGHIDTTYYASWVSGRFTSSKTSSTTVTLQLTSLTAADTATYFCARRTIYDDNDDYSYALHLWGPGTLVTVSS
VL: ALVMTQTPSSVSEPVGGTVTINCQASQSISNLLAWYQQKPGQPPKLLIYGASNLESGVPSRFKGSGSGTEYTLTISGVECADAATYYCQQGDSSSNLDNTFGGGTEVVVK

What follows are binders tested against control CAR 2, expressed on T cells (assay: flow cytometry histogram; hybridoma clonal supernatant on control CAR 2-expressing T cells, detected with FITC goat anti-rabbit F(ab')2; fraction of events in the CAR+ gate).

| CAR+ | Binder |
| --- | --- |
| 0.021 | B1 |
| 0.053 | B2 |
| 0.011 | B3 |
| 0.063 | B4 |
| 0.021 | B5 |
| 0.021 | B6 |

The binders below were run against anti-CLL-1 CAR (chimeric antigen receptor presenting the anti-CLL-1 scFv), expressed on primary human T cells (assay: flow cytometry histogram; hybridoma clonal supernatant on anti-CLL-1 CAR-transduced primary human T cells, detected with FITC goat anti-rabbit F(ab')2; fraction of events in the CAR+ gate).

| CAR+ | Binder |
| --- | --- |
| 55.6 | B1 |
| 57.7 | B2 |
| 55.9 | B3 |
| 58 | B4 |
| 55.8 | B5 |
| 57.7 | B7 |
| 57.8 | B6 |

What follows are binders tested against control CAR3, expressed on T cells (assay: flow cytometry histogram; hybridoma clonal supernatant on control CAR 3-expressing T cells, detected with FITC goat anti-rabbit F(ab')2; fraction of events in the CAR+ gate).
Design: unit not given here

| CAR+ | Binder |
| --- | --- |
| 0.011 | B1 |
| 0.011 | B2 |
| 0.011 | B4 |
| 0.011 | B5 |
| 0.011 | B7 |
